From patent US20090117111A1 (XOMA TECHNOLOGY, published 2009) come the findings set out here.

The target in one test is T1, human FcγRIIIa-158V (human, UniProt P08637 17-208).
T1 construct: also called FcγRIIIa aa158V allele
The test can be described thus: Biacore (SPR).

Test [1] has as its target T2, human FcγRIIIa-158F (human, UniProt P08637 17-208, limits assumed).
T2 construct: also called FcγRIIIa aa158F allele
The test can be described thus: Biacore (SPR).

In test [2] the target is T2, human FcγRIIIa-158F. The test can be described thus: Biacore (SPR); ratio of KD against rituximab. Background: In SPR one partner is held on a chip, and binding of the other changes the refractive index at the surface.

T2 sequence (P08637 17-208 limits assumed): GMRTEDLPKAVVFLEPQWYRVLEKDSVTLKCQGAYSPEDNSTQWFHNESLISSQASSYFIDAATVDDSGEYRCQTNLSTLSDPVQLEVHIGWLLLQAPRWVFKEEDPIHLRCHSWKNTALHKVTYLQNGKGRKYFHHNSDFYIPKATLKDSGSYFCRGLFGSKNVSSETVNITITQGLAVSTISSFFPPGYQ
T1 sequence (P08637 17-208 F176V): as the sequence (P08637 17-208 limits assumed) above, with F160V counted along it

B1: monoclonal antibody CHIR-12.12 (antibody, human IgG1, kappa)
heavy: not shown
light: DIVMTQSPLSLTVTPGEPASISCRSSQSLLYSNGYNYLDWYLQKPGQSPQVLISLGSNRASGVPDRFSGSGSGTDFTLKISRVEAEDVGVYYCMQARQTPFTFGPGTKVDIRRTVAAPSVFIFPPSDEQLKSGTASVVCLLNNFYPREAKVQWKVDNALQSGNSQESVTEQDSKDSTYSLSSTLTLSKADYEKHKVYACEVTHQGLSSPVTKSFNRGEC
notes: Fully human IgG1 kappa anti-CD40 antibody; also called CH12.12
For orientation: Kd means a measure of binding affinity in units of concentration. Lower therefore signals a tighter complex. Regarding B1, the results for the Kd with human FcγRIIIa-158V and in the test with human FcγRIIIa-158F [1] were 492 nM and 2800 nM, respectively. The “fold higher affinity compared with rituximab” value with human FcγRIIIa-158F [2] was found to be 4.6 fold.
